Measurements as given in US20090192048A1, “METHOD OF PRODUCING A […] AGENT FOR BINDING A LIGAND” (priority 2005, published 2009).
Ends that are not written are not given here.

Columns and labels:
Assay type in all cases: physicochemical
[1] = Retention of peptides on Costar polypropylene V-bottom wells; details: 400V scan; for Untreated fluorescence: unwashed; for Retained fluorescence: washed 15 minutes in 1 M NaCl in 10 mM tris-HCl (pH 8.0)
Method: (§1) The retention of peptides 2DOS-1 to 2DOS-16 (see above) on polypropylene and polystyrene surfaces was compared:
(§2) 5 mM tris-HCl (pH 8.0) in 75% (v/v) aqueous acetonitrile was used as the solvent for the peptides and for TAMRA.
(§3) 20 μl aliquots of 5 μM peptides 2DOS-1 to 2DOS-16 and 5 μM TAMRA were pipetted into the wells of a Costar V-bottomed polypropylene microtitre plate, a Greiner V-bottomed polypropylene microtitre plate, and a Greiner V-bottomed polystyrene microtitre plate according to the scheme shown in FIG. 26:
(§4) The peptide samples were allowed to evaporate to dryness in the dark.
(§5) The peptide samples in the top two rows of the microtitre plates were then incubated for 15 minutes at room temperature in 250 μl of 1 M NaCl in 10 mM tris-HCl (pH 8.0).
(§6) After incubation, the wash buffer was pipetted up and down eight times in the well before removing the supernatant.
(§7) The washed and untreated peptide samples were then resuspended in 50 μl of 10 mM tris-HCl (pH 8.0) in 50% (v/v) aqueous acetonitrile.
(§8) The microtitre plates were imaged at 200 μm resolution on a Typhoon Trio Plus variable mode imager (Amersham Biosciences) with the green (532 nm) laser and the 580 BP 30 filter at the PMT voltages indicated below and at normal sensitivity. The scan height was set at +3 mm and the sample was pressed during scanning.
(§9) The fluorescence images were analysed using ImageQuant TL v2003.03 (Amersham Biosciences).

[2] = Retention of peptides in V-bottomed polypropylene wells; details: V-bottom wells, 500V scan; for Untreated fluorescence: unwashed; for Retained fluorescence: washed 15 minutes in 1 M NaCl in 10 mM tris-HCl (pH 8.0)
Method: (§10) The retention of peptides 2DOS-1 to 2DOS-16 (see above) on polypropylene wells of different geometries was investigated:
(§11) 10 mM tris-HCl (pH 8.0) in 50% (v/v) aqueous acetonitrile was used as the solvent for the peptides and for TAMRA.
(§12) 1 μl aliquots of 10 μM peptides 2DOS-1 to 2DOS-16 and 10 μM TAMRA were pipetted into the wells of a Costar V-bottomed polypropylene microtitre plate and a Greiner flat-bottomed polypropylene microtitre plate according to the following scheme as shown in FIG. 22:
as §4
(§13) The peptide samples in the top two rows of the microtitre plates were then incubated for 15′ minutes at room temperature in 250 μl of 1 M NaCl in 10 mM tris-HCl (pH 8.0).
as §6, §7
as §8, with “the platen” for “+3 mm”, “during,” for “during”
as §9

[3] = Retention of peptides on Greiner polystyrene V-bottom wells; details: 400V scan; for Untreated fluorescence: unwashed; for Retained fluorescence: washed 15 minutes in 1 M NaCl in 10 mM tris-HCl (pH 8.0)
Method: as §1, §2, §3, §4, §5, §6, §7, §8, §9

[4] = Retention of peptides in flat-bottomed polypropylene wells; details: flat-bottom wells, 500V scan; for Untreated fluorescence: unwashed; for Retained fluorescence: washed 15 minutes in 1 M NaCl in 10 mM tris-HCl (pH 8.0)
Method: as §10, §11, §12, §4, §13, §6, §7
as §8, with “the platen” for “+3 mm”, “during,” for “during”
as §9

[5] = Retention of peptides 2DOS-1 to 2DOS-16 on a hydrophobic surface (polypropylene microtitre plate wells), water wash; details: 400V scan; for Initial fluorescence (×10^3): 100 μl of 10 μM peptide before drying and washing; for Recovered fluorescence (×10^3): dried, washed ten times with 250 μl water, resuspended
Method: The retention of peptides 2DOS-1 to 2DOS-16 on a hydrophobic surface (the wells of a polypropylene microtitre plate) was then investigated.
as §11
100 μl aliquots of 10 μM peptides 2DOS-1 to 2DOS-16 and 10 μM TAMRA were placed in the wells of a Costar microtitre plate as shown in FIG. 13:
as §8, with “plate was” for “plates were”
The peptides were allowed to evaporate to dryness overnight in the dark and the microtitre plate was again scanned as described above.
The wells were then washed ten times with 250 μl of water.
The residual surface-bound peptides were finally resuspended in 100 μl of 10 mM tris-HCl (pH 8.0) in 50% (v/v) aqueous acetonitrile and the microtitre plate was again scanned as described above.
as §9
Quantification data (using the data from the 400V scan) is given in Table 2 and shown graphically in FIG. 15.

[6] = Retention of peptides on Greiner polypropylene V-bottom wells; details: 400V scan; for Untreated fluorescence: unwashed; for Retained fluorescence: washed 15 minutes in 1 M NaCl in 10 mM tris-HCl (pH 8.0)
Method: as §1, §2, §3, §4, §5, §6, §7, §8, §9

Substance	Percent retention [1] [%]	Untreated fluorescence [1]	Retained fluorescence [1]	Percent retention [2] [%]	Untreated fluorescence [2]	Retained fluorescence [2]	Percent retention [3] [%]	Untreated fluorescence [3]	Retained fluorescence [3]	Percent retention [4] [%]	Untreated fluorescence [4]	Retained fluorescence [4]	Initial fluorescence (×10^3) [5]	Recovered fluorescence (×10^3) [5]	Percent retention [6] [%]	Untreated fluorescence [6]	Retained fluorescence [6]
N-TAMPA-Asp-Asp- Asp-Asp-Asp-Asp- Asp-C ({TAMRA}-DDDDDDD) [Peptide 2DOS-16]	0	5,387,850	16,194	0	9,782,527	44,420	0	789,858	3,864	1	15,555,465	229,090	30,335 ×10^3	3 ×10^3	1	3,813,060	25,885
N-TAMPA- Asp-Norleu- Ala-Norleu-Ser- Norleu-Lys-C [Peptide 2DOS-5]	31	5,331,763	1,651,850	36	8,664,667	3,116,833	23	745,029	171,500	45	14,337,629	6,492,170	32,473 ×10^3	1,270 ×10^3	27	3,817,250	1,048,978
N-TAMRA-Asp- Norleu- Asp-Norleu-Asp- Norleu-Asp-C [Peptide 2DOS-13]	8	4,886,617	387,738	11	7,623,227	806,022	9	708,162	62,590	17	12,935,739	2,162,164	26,181 ×10^3	25 ×10^3	10	3,635,229	378,287
N-TAMRA-Ser-Asp- Ser-Asp-Ser-Asp- Ser-Asp-Ser-C ({TAMRA}-SDSDSDSDS) [Peptide 2DOS-11]	2	5,327,435	102,040	2	9,705,293	192,272	1	675,269	7,365	3	13,960,552	476,318	26,860 ×10^3	0 ×10^3	2	3,510,896	86,818
N-TAMRA-Asp-Phe- Ala-Phe-Ser-Phe- Lys-C ({TAMRA}-DFAFSFK) [Peptide 2DOS-6]	22	5,733,046	1,256,204	39	9,141,290	3,527,116	25	666,352	167,118	36	14,539,109	5,256,539	33,853 ×10^3	1,455 ×10^3	22	3,889,995	849,582
N-TAMRA-Phe-Asp- Phe-Asp-Phe-Asp- Phe-Asp-Phe-C ({TAMRA}-FDFDFDFDF) [Peptide 2DOS-10]	24	6,043,214	1,439,375	33	8,445,090	2,773,876	17	602,771	100,265	39	13,661,609	5,353,630	28,479 ×10^3	2,884 ×10^3	22	3,043,118	654,623
N-TAMRA-Norleu- Asp-Norleu-Ala- Norleu-Ser-Norleu- Lys-Norleu-C [Peptide 2DOS-1]	52	6,458,364	3,366,403	70	9,550,835	6,641,271	35	640,145	225,686	14	14,949,396	2,157,124	33,015 ×10^3	7,459 ×10^3	37	3,328,960	1,235,460
N-TAMRA-Asp-Ser- Ala-Ser-Ser-Ser- Lys-C ({TAMRA}-DSASSSK) [Peptide 2DOS-7]	6	5,139,578	326,328	9	8,674,544	746,596	2	706,200	15,766	13	10,189,473	1,303,195	29,134 ×10^3	0 ×10^3	5	3,751,280	205,430
N-TAMPA-Asp-Asp- Asp-Asp-Asp-Asp- Asp-Asp-Asp-C ({TAMRA}-DDDDDDDDD) [Peptide 2DOS-12]	0	4,432,090	18,180	1	6,777,661	52,365	1	684,832	3,788	1	12,982,170	106,741	26,433 ×10^3	1 ×10^3	1	3,235,590	20,175
